Patent US20230192819A1 (TWIST BIOSCIENCE, published 2023)
Where “and” joins values, the source holds several entries; their conditions need not be identical. Equal entries are not always repeated. Where two headings read alike, the source gives them in different places.

Legend:
[1] = molecular target: T1, C52Hk S. African variant (Acro) spike protein (SARS-CoV-2, UniProt P0DTC2 16-1213); assay: SPR (Carterra LSA); […]; 1:1 model; […]
[2] = molecular target: T2, Acro S1 spike protein (SARS-CoV-2) (SARS-CoV-2, UniProt P0DTC2 16-685)
[3] = molecular target: T1, C52Hk S. African variant (Acro) spike …
[4] = molecular target: Delta variant (Acro) spike protein (SARS-CoV-2, UniProt P0DTC2 16-1213)
[5] = molecular target: California Variant W152C_L452R_D614G
[6] = molecular target: T3, S1 variant B.1.1.7: UK (Acro) spike protein (SARS-CoV-2, UniProt P0DTC2 16-1213)
[7] = molecular target: T4, C52Hg Brazilian variant (Acro) spike protein (SARS-CoV-2, UniProt P0DTC2 16-1213)
[8] = molecular target: T3, S1 variant B.1.1.7: UK (Acro) spike …; assay: SPR (Carterra LSA); antibody on chip, spike protein as analyte; summary table
[9] = molecular target: T1, C52Hk S. African variant (Acro) spike …; assay: as above
[10] = molecular target: T4, C52Hg Brazilian variant (Acro) spike …; assay: as above
[11] = molecular target: T2, Acro S1 spike protein (SARS-CoV-2); assay: as above
[12] = molecular target: T2, Acro S1 spike protein (SARS-CoV-2); assay: SPR (Carterra LSA); […]; 1:1 model; […]
[13] = molecular target: T4, C52Hg Brazilian variant (Acro) spike …; assay: SPR (Carterra LSA); […]; 1:1 model; […]
[14] = molecular target: T3, S1 variant B.1.1.7: UK (Acro) spike …; assay: SPR (Carterra LSA); […]; 1:1 model; […]
[15] = molecular target: T3, S1 variant B.1.1.7: UK (Acro) spike …; assay: SPR (Carterra LSA)
[16] = molecular target: T1, C52Hk S. African variant (Acro) spike …; assay: SPR (Carterra LSA)
[17] = molecular target: T4, C52Hg Brazilian variant (Acro) spike …; assay: SPR (Carterra LSA)
[18] = molecular target: T2, Acro S1 spike protein (SARS-CoV-2); assay: SPR (Carterra LSA)

Binder | Kd [1] | koff [1] | kon [1] | Kd [2] | koff [2] | kon [2] | Kd [4] | koff [4] | kon [4] | IC50 [5] | Kd [6] | Kd [8] | Kd [9] | Kd [10] | Kd [13] | koff [13] | kon [13] | Kd [14] | koff [14] | kon [14] | also measured
Antibody 1-1 (Fc fusion) EVQLVESGGGLVQPGGSLRLSCAASGSIGSINAMGWFRQAPGKEREWVAGISNGGTTNYADSVKGRFTISADNSKNTAYLQMNSLKPEDTAVYYCAADGVPEYSDYASGPVWGQGTLVTVSS | 1.07 nM | 0.00058 s⁻¹ | 540000 M⁻¹ s⁻¹ | 2.8 nM and 4 nM | 0.000378 s⁻¹ and 0.000446 s⁻¹ | 135000 M⁻¹ s⁻¹ and 112000 M⁻¹ s⁻¹ | 2.31 nM and 2.22 nM | 0.000433 s⁻¹ and 0.000358 s⁻¹ | 188000 M⁻¹ s⁻¹ and 161000 M⁻¹ s⁻¹ | 4.4 nM | 0.82 nM and 2.06 nM | 0.867 nM | 1.07 nM | 0.691 nM | 0.691 nM | 0.00038 s⁻¹ | 550000 M⁻¹ s⁻¹ | 0.867 nM | 0.00052 s⁻¹ | 600000 M⁻¹ s⁻¹ | Kd [3]: 6.2 nM; koff [3]: 0.000806 s⁻¹; kon [3]: 130000 M⁻¹ s⁻¹; koff [6]: 0.00024 s⁻¹ and 0.000189 s⁻¹; Kd [7]: 5.57 nM and 9.51 nM; koff [7]: 0.000724 s⁻¹ and 0.000956 s⁻¹; kon [7]: 130000 M⁻¹ s⁻¹ and 100000 M⁻¹ s⁻¹; Kd [11]: 0.677 nM; Kd [12]: 0.677 nM; koff [12]: 0.00042 s⁻¹; kon [12]: 620000 M⁻¹ s⁻¹
Antibody 1-8 (Fc fusion) EVQLVESGGGLVQPGGSLRLSCAASGRTLSRYTMGWFRQAPGKEREFVASITSGGTTNYADSVKGRFTISADNSKNTAYLQMNSLKPEDTAVYYCAKEDVGKPFDWGQGTLVTVSS | 1 nM | 0.00057 s⁻¹ | 570000 M⁻¹ s⁻¹ | 2.22 nM and 4.13 nM | 0.000412 s⁻¹ and 0.000662 s⁻¹ | 186000 M⁻¹ s⁻¹ and 160000 M⁻¹ s⁻¹ | 2.39 nM and 3.18 nM | 0.000409 s⁻¹ and 0.000318 s⁻¹ | 171000 M⁻¹ s⁻¹ and 100000 M⁻¹ s⁻¹ | 2.72 nM | 3.2 nM | 2.26 nM | 1 nM | 0.321 nM | 0.321 nM | 0.00017 s⁻¹ | 530000 M⁻¹ s⁻¹ | 2.26 nM | 0.0007 s⁻¹ | 310000 M⁻¹ s⁻¹ | koff [6]: 0.000572 s⁻¹; kon [6]: 179000 M⁻¹ s⁻¹; Kd [7]: 2.53 nM and 1.9 nM; koff [7]: 0.000158 s⁻¹ and 0.00011 s⁻¹; kon [7]: 62400 M⁻¹ s⁻¹ and 58000 M⁻¹ s⁻¹
Antibody 1-19 (Fc fusion) EVQLVESGGGLVQPGGSLRLSCAASGFTFSDYAMGWFRQAPGKEREVVARIYWSSANTYYADSVKGRFTISADNSKNTAYLQMNSLKPEDTAVYYCATYGYDSGRYYSWGQGTLVTVSS |  |  |  |  |  |  |  |  |  |  |  |  |  |  |  |  |  |  |  |  | binding result [15]: no binding; binding result [16]: no binding; binding result [17]: no binding; binding result [18]: no binding
Antibody 1-7 (Fc fusion) EVQLVESGGGLVQPGGSLRLSCAASGGTFSSIGMGWFRQAPGKEREFVAAISWDGGATAYADSVKGRFTISADNSKNTVYLQMNSLKPEDTAVYYCAKEDVGKPFDWGQGTLVTVSS | 1.36 nM | 0.00049 s⁻¹ | 360000 M⁻¹ s⁻¹ |  |  | 130000 M⁻¹ s⁻¹ and 161000 M⁻¹ s⁻¹ | 0.114 nM and 0.0579 nM | 1.87e-05 s⁻¹ and 1e-05 s⁻¹ | 164000 M⁻¹ s⁻¹ and 173000 M⁻¹ s⁻¹ | 0.111 nM |  | 1.11 nM | 1.36 nM | 0.962 nM | 0.962 nM | 0.00025 s⁻¹ | 260000 M⁻¹ s⁻¹ | 1.11 nM | 0.0004 s⁻¹ | 360000 M⁻¹ s⁻¹ | Kd [3]: 8.2 nM and 7.9 nM; koff [3]: 0.000459 s⁻¹ and 0.000521 s⁻¹; kon [3]: 56000 M⁻¹ s⁻¹ and 66000 M⁻¹ s⁻¹; kon [6]: 144000 M⁻¹ s⁻¹ and 188000 M⁻¹ s⁻¹; Kd [7]: 8.53 nM and 12.5 nM; koff [7]: 0.00081 s⁻¹ and 0.00121 s⁻¹; kon [7]: 95000 M⁻¹ s⁻¹ and 96200 M⁻¹ s⁻¹; Kd [11]: 1.31 nM; Kd [12]: 1.31 nM; koff [12]: 0.00047 s⁻¹; kon [12]: 360000 M⁻¹ s⁻¹
Antibody 1-10 (Fc fusion) EVQLVESGGGLVQPGSSLRLSCAASGGTFSSIGMGWFRQAPGKEREFVAAISWDGGATAYADSVKGRFTISADNSKNTAYLQMNSLKPEDTAVYYCAKEDVGKPFDWGQGTLVTVSS | 13.9 nM | 0.00089 s⁻¹ | 64000 M⁻¹ s⁻¹ | 2.6 nM | 0.00053 s⁻¹ and 0.000728 s⁻¹ | 280000 M⁻¹ s⁻¹ | 7.43 nM and 5.43 nM | 0.000706 s⁻¹ and 0.000516 s⁻¹ | 95000 M⁻¹ s⁻¹ | 0.13 nM | 0.33 nM and 0.27 nM | 0.481 nM | 13.9 nM | 127 nM | 127 nM | 0.00081 s⁻¹ | 6400 M⁻¹ s⁻¹ | 0.481 nM | 0.00013 s⁻¹ | 270000 M⁻¹ s⁻¹ | koff [6]: 2.54e-05 s⁻¹ and 2.32e-05 s⁻¹; kon [6]: 77000 M⁻¹ s⁻¹ and 86000 M⁻¹ s⁻¹; Kd [11]: 1.95 nM; Kd [12]: 1.96 nM; koff [12]: 0.00053 s⁻¹; kon [12]: 270000 M⁻¹ s⁻¹
Antibody 1-15 (Fc fusion) EVQLVESGGGLVQPGGSLRLSCAASGGIFSDMFMGWFRQAPGKEREFVATIDWSGDTAFYADSVKGRFTISADNSKNTAYLQMNSLKPEDTAVYYCAVDLSGDAVYDWGQGTLVTVSS | 1.04 nM | 0.00028 s⁻¹ | 270000 M⁻¹ s⁻¹ | 5.43 nM and 10.9 nM | 0.000339 s⁻¹ and 0.000547 s⁻¹ | 62400 M⁻¹ s⁻¹ and 50200 M⁻¹ s⁻¹ |  |  |  | 66.7 nM | 0.708 nM and 0.82 nM | 0.828 nM | 1.4 nM | 1.04 nM | 1.04 nM | 0.00028 s⁻¹ | 270000 M⁻¹ s⁻¹ | 0.828 nM | 0.00024 s⁻¹ | 290000 M⁻¹ s⁻¹ | koff [6]: 5.5e-05 s⁻¹; kon [6]: 77700 M⁻¹ s⁻¹; koff [7]: 1e-05 s⁻¹; Kd [11]: 10.4 nM; Kd [12]: 10.4 nM; koff [12]: 0.00094 s⁻¹; kon [12]: 90000 M⁻¹ s⁻¹
